{
  "source": "the DeepSol protein solubility set",
  "data": [
    {"experiment": "soluble on expression in E. coli; label from the status in PepcDB or PDB records", "values": [
      {"sequence": "SLNSLASHTFISGSTGTGKSNTVYEILDEVRKHGVKFLVVEPVKGEYKHIFGNDENVSVYGTNPELSDLLRINPFAFPKGIHVLEHLDRLIEIFNVCWPMYAAMPAVLKNAVERAYEDSGWDLLKSINSYGDLYPTFADVTRNIKEIIDSSEYDNENKGAYKGSLLTRLESLTNGINGMIFTNQAITDKELFDENVIIDLSRVGSTETKSLIMGMLVLKLQEYRMTHTDSLNNILKHVTVLEEAHNILKRTSNEQSMEDSNLVGKSVEMIANGIAEMRTYGEGFIIADQAPGLMDMAVIRNTNTKIIMRLPDFSDRELVGKSANL", "soluble on expression in E. coli": "not soluble"},
      {"sequence": "GKRSHSMKRNPNAPVTKAGWLFKQASSGVKQWNKRWFVLVDRCLFYYKDEKEESILGSIPLLSFRVAAVQPSDNISRKHTFKAEHAGVRTYFFSAESPEEQEAWIQAMGEAARVQ", "soluble on expression in E. coli": "soluble"},
      {"sequence": "NTLGMALYADGGLMASKPYAASGKYIHRMSNFCQSCYYNPNDLLGEKACPFNALYWNFLHQNQEKLKDNPRLRYAYMNWQKMDFDKQKKTIHKAQRILADLDSANL", "soluble on expression in E. coli": "not soluble"},
      {"sequence": "MGSDKIHHHHHHAQTKSLHQLQQEFVDLRCGMFIHFNMPTFFNEDWPDPDAAPELFNPVRMDCKQWAKAAKSANMTYGCLTTKHHSGFCIWDTKTTDYSVMSSPFKRDVVKEYADAFRAEGMKVMLYYSILDTHARLRPKCITPQHIEMIKEQLRELLTNYGEITALIIDGWDAPWSRISYDDVPFEDIYRLVKSIQPNCLVMDLNAAKYPAEALFYTDIKSYEQGAGQHISKDTNRLPALSCLPLQQNWFWKESFPTTPVKSPAQMVNDNIIPMGKSYCNFILNVAPNRDGLMDANALKALKEIGKLWKNDGRVATVPEADAPIISSNIAKYQPAEGTWSSDYAIMDFANDDDFGTCWNSNPEVKVPWYSVTFEREKSFNMVVITDRNNDRLQEYRLEYRAGGTWKPLYEGKAPTGLRVKIHRFDTVWGDAVRMTVLNSNGTTSIAEFGVYCERR", "soluble on expression in E. coli": "not soluble"},
      {"sequence": "LDDEDVDTVVDHCGDILEHFERLEEVPEVDAEPELVNVMRADEIADSLDQDDALANAPETEDGRF", "soluble on expression in E. coli": "soluble"},
      {"sequence": "MSWTDERVELLKKMWGEGQSASQIAKELGGVTRNAVIGKVHRLGLSNRSSGAAPASTKAETKEKPAAATPRAEAKPKPAPRPEPLRAAPDPAPAPQPAEIKPIPARKQIIPAGQPLPPQPSANEISPEALAKVNEVEKKAKKLSLMELTERTCKWPVGDPATEDFWFCGLPVQQGKPYCEAHVGVAFQPMSSRRDRRRLEHHHHHH", "soluble on expression in E. coli": "soluble"},
      {"sequence": "MAGDPMQADLFDAEQTGIRTRLGEQAWVLRGFALPWLDALLPALRAVIAQAPLRHMATPGGFTMSVALTNCGALGWTTDAHGYRYRPDDPQTGLPWPPMPQAFAQLAREAAAQAGFAGFDPDACLVNRYAPGARMSLHQDKNERDFGAPIVSVSLGLPAMFLFGGARRDERPARIPLLHGDVAVWGGVDRLRYHGVMPLAEGQHPLLGRQRINFTLRRAGALEHHHHHH", "soluble on expression in E. coli": "not soluble"},
      {"sequence": "MGSDKIHHHHHHMAEVFHERLKSPIPTRELARRSRELQAVMKKENIDCILAQNITQYMGGCNRWLTDTTAENHYPQSSFLTKDGDIGYIACSGPPLDLYPPSHLLRIGKPWAAAPYFSVFNFTWDWEGRLFVKWVQENNVQKVGIAGMEMIMWNYYNYIAEKLPGVEIVDASSLFDEIRAVKSEDEIKFLEKSAALQDKVMGYLPALIQPGVREYEVRAKIMQLVTDHGGEEMIVIMGSAPRGEKFSLLPSFFQNRELQTGDELYVKLQCSGPGGLFTTVGRMFSIGCEPSGALEQGWREAAAAQEKLAGLLQVGADPQVIFGQYNAYLESKGYNQETGLFVYGQGYDHIERPSIQPGETMKLAKDMCLAANTSLISAERTVYCADSFILKPSGPQKLHRTPLTIFRT", "soluble on expression in E. coli": "not soluble"},
      {"sequence": "MGSDKIHHHHHHMENFVRNSKLNIEKEIKRIEQQPIALLERIKQIIDVIQTSLTLLKRAVAEYQFQNPEEEIQFFKVWKPQISGLLMFYIRLYQIEKNRVGKSLSAQCKYLKMELENIQKSFLNNSFYDYYRAGQTELDNQYFIRENYDILSDVHCHLLDRDSSFTTLHDSSVAMILANSHLIEYVSDEIDSLSDKLHLKFTSIVDSKLLQWTDSKVALVEFIYAIYAGKCFNNGNTSLKDIAFCCEILFNIEIGDFYRIFLEIRNRKKSRTQFLDKLKDKIQKMMEELDR", "soluble on expression in E. coli": "not soluble"},
      {"sequence": "MGSDKIHHHHHHMPAALPIKPPFKPRDISIVGAGVAGASLALSLLRRGHKVTLYCADAAPGIGASGNRQGAIYPLLTPEDDHLTRLFVPAFLYAKRFVESLAHHPLPFDFCGVLQTGHDERATERIEKLLSKTWPKQVAVRVDADEANHIAGVAIDKGGIYYPQGGWVSPAKLCEAAIEEAKTMGLECHFDVNITSITRADEGWRLNTQTGEIDAHELVLATGHRITELAQTKSLQLAPFRGQVSHVPTRGKLEQLKTVLCAHGYFTPRDASSGSHCMGASYVRGDTSVEYREQEQQENLHKMQESYPGKDWVEYLDISEGSARAGIRMVSRDHLPMAGAAPDVAAIQTQYQAIGHGPKGAQYWQTHAAPVHPGLYIFSGLGSRGLSSGPLIAECLADSLSGTLPVLDGDVMEALNPNRMWLRKLKKGKALD", "soluble on expression in E. coli": "not soluble"},
      {"sequence": "MGSDKIHHHHHHMMVLEQPLKSFFTSLSQSKSMNKLAKKWGLKLGASQVVAGVTISEAIEKVKELNEKGLSATLDHLGEFVEERTEAIEATDHCIQTLEQIASSGVNCNLSLKLTQLGLDIDQSFCLENMERIIKKAAELGIFVRIDMEDYGHCQQTLDILAELRKTYDNVGTVIQAYLFRALDDVRALEGIPLRLVKGAYKESPEVAYQEKEKIDENYFNMIKLHLDSGTYTAIASHDHQIIDRVKAYVKEKGISHSQFEFQMLYGFRTNLQEELVKEGYNVRIYVPFGIDWFGYFMRRLAERPQNVAFALRGFFSK", "soluble on expression in E. coli": "not soluble"},
      {"sequence": "MAALVDLVNFQLENAKALSTVLRQETQAITARVSSEIESIAKRKMTLIDQLRTTDQRIASHPHVNQLTEDEHLSQVVAQIQSIVLDCQQVNRVNGESLSRAQLSFNKLNNMLQHTHGKIGMTYNAGGKTHTISTLGTNIKA", "soluble on expression in E. coli": "not soluble"},
      {"sequence": "MSKAEFQKFHDEMKALKNAGKHDEFAKKFAAKDAVFIGPLHDPCTADEAAKLAQSDKMAALVKADFDVKIDEVTQIGDVVVERCSISAKLPTGDKNGWSLTVWVKEGGAWKIRNSCITFKAPIPQ", "soluble on expression in E. coli": "not soluble"},
      {"sequence": "SLCIDRQLYSAVQNSNRQKHQPLNSYVSLSDENESDHLEGSWSEDPEALIIDQESTRTLEREITKVLSPMENKVLDYYLRGYGYVKIAEIMGKTPKSIDNALQRIRGKIRNFSAPVQK", "soluble on expression in E. coli": "not soluble"},
      {"sequence": "EYSYQYNLRVEPGVSHQRANIGIDYQGMDWIIGPNYTAEQARIILRLDDQTRYVLQPEKRHYPVRVMNMTEPAILSLWHGDYYLTLGDKVGTNAYAIKVQ", "soluble on expression in E. coli": "not soluble"},
      {"sequence": "METFTVKMGADSGLLQFEPANVTVHPGDTVKWVNNKLPPHNILFDDKQVPGASKELADKLSHSQLMFSPGESYEITFSSDFPAGTYTYYCAPHRGAGMVGKITVEG", "soluble on expression in E. coli": "soluble"},
      {"sequence": "MAHHHHHHMAKLLPPPFHGYIRKMFFPLRNAASASRKCCLHTHVQQKNGMMKTTPLISKRSYFTSLYDTKTEKTKLMNEMDDLYDHILTSNWNDSVHLVLNVSIWEGILNSIEDKVKLYEQDEDIMKKKKIINEIFDVLFILEDLRDHVNELLEQSSRASGLAGTHILASFKIENMNEHIEFLKTKYDELLLKYPLYKYQIDMVLGKGLALLRQKYNFEWRHMHNFFF", "soluble on expression in E. coli": "not soluble"},
      {"sequence": "MERGEIWLVSLDPTAGHEQQGTRPVLIVTPAAFNRVTRLPVVVPVTSGGNFARTAGFAVSLDGVGIRTTGVVRCDQPRTIDMKARGGKRLERVPETIMNEVLGRLSTILT", "soluble on expression in E. coli": "soluble"},
      {"sequence": "MGSDKIHHHHHHMRILRVAQDIFPDKVGGAPYHIHALSRDQAEMGHDVTVLTVSNDQSKPQTEQRAGYTLVRLSPRIELFGNALFAGTVKYLRNAREYDVVHAHSHLFFSSNLTAAYSRVTDIPLAVTCHGLMSQRVPEWFSRFHLNTVGRFTYNAADVLFSYTAPERERLRDLGVSSDIRVIHNGIDVDRFTPVGATYDRITDATGPAVVFVGRLVEGKRPRDVLKAFQTVQNNIPEAKLFFCGDGPLRDKLEQIVERENMRESIRFLERVPYQEMPAVYRAADLFVLASRTEGFPRSVMESMACATPILSTRLEQTEQVIEQAGRTVPVGDTTALADAMSSMLDDRAALRKLGQAGREIVMREYDWSETVEQTTQTLGTISTSTPSQQQVDSGQAEEQVIPAGSNTEHEQ", "soluble on expression in E. coli": "not soluble"},
      {"sequence": "IQFTESCSMDQSAKEPLINYLDMEYFGTISIGSPPQNFTVIFDTGSSNLWVPSVYCTSPACKTHSRFQPSQSSTYSQPGQSFSIQYGTGSLSGIIGADQVSVEGLTVVGQQFGESVTEPGQTFVDAEFDGILGLGYPSLAVGGVTPVFDNMMAQNLVDLPMFSVYMSSNPEGGAGSELIFGGYDHSHFSGSLNWVPVTKQAYWQIALDNIQVGGTVMFCSEGCQAIVDTGTSLITGPSDKIKQLQNAIGAAPVDGEYAVECANLNVMPDVTFTINGVPYTLSPTAYTLLDFVDGMQFCSSGFQGLDIHPPAGPLWILGDVFIRQFYSVFDRGNNRVGLAPAVPWSHPQFEK", "soluble on expression in E. coli": "soluble"},
      {"sequence": "MSLIFNKNCNVNKETQIEAFAIKNHDKKFVYPMGNIIGVKANTDGVLVLGYEEEDVDYIGGIQIGDNIVKIDNKRIKNSQDVSEILNKIKKSKVEVTFERKNKYKTEVIETKKENGKYKLGLWVRDKISGIGTMTFYDPSMEKFKAIGHAIKDSDTNELLKIKQGYIYKPEQLKIVKASNEKVGKIKGDFNDSNLMGNFSNNSELGISGNITENHNKEFNVANKEKQLIEVGRPQDVKIGDAVILFEDKNKNITSYDIKIESIVYDKGNYRDMVIKVVDDKLLEYTGGIVQGMSGAPIIQNNKIIGAITHVFRDNPKKGYGIFIDEMIKLEGHHHHHH", "soluble on expression in E. coli": "soluble"},
      {"sequence": "KTFAALGSGVIGSGWIARALAHGLDVVAWDPAPGAEAALRARVANAWPALRKQGLAPGAAQERLRFVASIEECVGDADFIQESAPERLDLKLDLHARISAAARPDVLIGSSTSGLLPSEFYAEASHPERCLVGHPFNPVYLLPLVEVVGGERTAAEAVRAAMRVYESLGMRPLHVRKEVPGFIADRLLEALWREALHLVNDGVATTGEIDDAIRFGAGLRWSFMGTFLTYTLAGGNAGMRHFMAQFGPALQLPWTYLPAPELTEALIDRVVEGTAEQQGARSIAELERYRDDCLLAVLGAIRETKARHGFA", "soluble on expression in E. coli": "not soluble"},
      {"sequence": "MGHHHHHHSHMDKNVISVKIMEEKRDESTGVIYRKRIAICQNVVPEILRKVSILKVPNIQLEEESWLNPRERNMAIRSHCLTWTQYASMKEESVFRESMENPNWTEFIQRGRISITGVGFLNCVLETFASTFLRQGAQKGIRIMEMLLKEQCGAPLAE", "soluble on expression in E. coli": "not soluble"}
    ]}
  ]
}
